{"source": "paper PMC5902510", "target": "GST-SpyCatcher fusion protein, immobilised on nanoparticles (Streptococcus pyogenes)", "assay": "dynamic light scattering; GST-SpyCatcher held on 40 nm citrate-capped gold nanoparticles; excess of the second protein, 3 h incubation; increase of Z-average diameter (Δd); 20 °C; 10 mM HEPES pH 7.3, 10 mM NaCl"}
{"substance": "NEM-GST-SpyTag", "values": [{"measurement": "increase of particle diameter (Δd)", "result": 3, "unit": "nm"}]}
